Several values for one entry are separate records, joined by “and”; a condition that tells them apart may be missing. Equal values may be shown once. Each block holds one binder with its values, some of them ahead of it.
Tests used:
[1] = molecular target: T1, purified biotin-conjugated PCSK9 (UniProt Q8NBP7 31-692, limits assumed, biotin-conjugated (site not stated)); experiment: AlphaScreen competition of biotin-PCSK9 binding to His6-LDLR ectodomain
T1 construct: Coated on streptavidin donor beads; also called PCSK9 (AlphaScreen donor beads)
Description: AlphaScreen® (Perkin Elmer) streptavidin donor beads were coated with purified biotin-conjugated PCSK9 and AlphaScreen® nickel chelate acceptor beads were coated with purified His6-conjugated LDLR ectodomain. Competition in the AlphaScreen® PCSK9-LDLR interaction assay was measured, in the presence of increasing concentrations of AnxA2-derived peptides, as a reduction of fluorescence.

[2] = molecular target: T2, PCSK9-V5 (full-length human PCSK9 with C-terminal V5 tag) (human, UniProt Q8NBP7 31-692); experiment: Far Western blot of HEK293 lysates
T2 construct: Used as conditioned medium of CHO-K1 cells (Far Western, pull-down) or co-expressed in cells (co-IP); The background says PCSK9 is secreted as a prosegment-PCSK9 heterodimer; also called full-length (FL) PCSK9-V5; native PCSK9; not shown: C-terminal V5 tag

- IC50 [1]: 500 nM to 1 µM (2×) and 750 nM
B1: peptide No 896970 (73-mer AnxA2 R1 peptide extending from amino acids 25 to 97) (peptide)
peptide: GSVKAYTNFDAERDALNIETAIKTKGVDEVTIVNILTNRSNAQRQDIAFAYQRRTKKELASALKSALSGHLET
notes: also called AnxA2 25-97 peptide

- binding result [2]: no binding
B2: AnxA2 ΔR1-HA (deletion of aa 37-108) (other)
chain: MSTVHEILCKLSLEGDHSTPPSAYGSVKAYTNFDAEYDASELKASMKGLGTDEDSLIEIICSRTNQELQEINRVYKEMYKTDLEKDIISDTSGDFRKLMVALAKGRRAEDGSVIDYELIDQDARDLYDAGVKRKGTDVPKWISIMTERSVPHLQKVFDRYKSYSPYDMLESIRKEVKGDLENAFLNLVQCIQNKPLYFADRLYDSMKGKGTRDKVLIRIMVSRSEVDMLKIRSEFKRKYGKSLYYYIQQDTKGDYQKALLYLCGGDDYPYDVPDYA
notes: also called Δ37-108 (R1)

- binding result [2]: binds
B3: AnxA2 ΔR3-HA (deletion of aa 193-268) (other)
chain: MSTVHEILCKLSLEGDHSTPPSAYGSVKAYTNFDAERDALNIETAIKTKGVDEVTIVNILTNRSNAQRQDIAFAYQRRTKKELASALKSALSGHLETVILGLLKTPAQYDASELKASMKGLGTDEDSLIEIICSRTNQELQEINRVYKEMYKTDLEKDIISDTSGDFRKLMVALAKGRRAEDGSVIDYELIDYFADRLYDSMKGKGTRDKVLIRIMVSRSEVDMLKIRSEFKRKYGKSLYYYIQQDTKGDYQKALLYLCGGDDYPYDVPDYA
notes: also called Δ193-268 (R3)

- binding result [2]: binds
B4: AnxA2 ΔR4-HA (deletion of aa 269-339) (other)
chain: MSTVHEILCKLSLEGDHSTPPSAYGSVKAYTNFDAERDALNIETAIKTKGVDEVTIVNILTNRSNAQRQDIAFAYQRRTKKELASALKSALSGHLETVILGLLKTPAQYDASELKASMKGLGTDEDSLIEIICSRTNQELQEINRVYKEMYKTDLEKDIISDTSGDFRKLMVALAKGRRAEDGSVIDYELIDQDARDLYDAGVKRKGTDVPKWISIMTERSVPHLQKVFDRYKSYSPYDMLESIRKEVKGDLENAFLNLVQCIQNKPLYPYDVPDYA
notes: also called Δ269-339 (R4)

- binding result [2]: binds
B5: AnxA2 ΔR2-HA (deletion of aa 109-192) (other)
chain: MSTVHEILCKLSLEGDHSTPPSAYGSVKAYTNFDAERDALNIETAIKTKGVDEVTIVNILTNRSNAQRQDIAFAYQRRTKKELASALKSALSGHLETVILGLLKTPAQQDARDLYDAGVKRKGTDVPKWISIMTERSVPHLQKVFDRYKSYSPYDMLESIRKEVKGDLENAFLNLVQCIQNKPLYFADRLYDSMKGKGTRDKVLIRIMVSRSEVDMLKIRSEFKRKYGKSLYYYIQQDTKGDYQKALLYLCGGDDYPYDVPDYA
notes: also called Δ109-192 (R2)
